Experimental findings from patent publication US20240034816A1 are described below.

For assay [1], the target named is human neonatal Fc receptor (FcRn) (human) (UniProt P55899). The experiment in a line: SPR, binding to huFcRn at pH 6.0. On the technique in general: Surface plasmon resonance follows binding to a sensor surface in real time, without labels.
Assay [2] addresses human CD16a (human FcγRIIIA), V isoform (human) (UniProt P08637). Nature of the assay: SPR (Biacore T200), His-tagged huCD16a captured by anti-His antibody on CM5 chip, antibody injected at 5.8-3000 nmol/L, steady state fit.

human CD16a (human FcγRIIIA), V isoform (human), sequence (P08637 17-208 F176V limits assumed): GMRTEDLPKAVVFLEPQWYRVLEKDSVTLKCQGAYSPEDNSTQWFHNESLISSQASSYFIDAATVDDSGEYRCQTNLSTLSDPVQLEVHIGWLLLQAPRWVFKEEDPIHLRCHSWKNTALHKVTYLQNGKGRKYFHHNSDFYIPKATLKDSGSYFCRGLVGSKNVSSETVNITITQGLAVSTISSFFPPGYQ
human neonatal Fc receptor (FcRn) (human), sequence (P55899 24-297 limits assumed, chain 1 of 2): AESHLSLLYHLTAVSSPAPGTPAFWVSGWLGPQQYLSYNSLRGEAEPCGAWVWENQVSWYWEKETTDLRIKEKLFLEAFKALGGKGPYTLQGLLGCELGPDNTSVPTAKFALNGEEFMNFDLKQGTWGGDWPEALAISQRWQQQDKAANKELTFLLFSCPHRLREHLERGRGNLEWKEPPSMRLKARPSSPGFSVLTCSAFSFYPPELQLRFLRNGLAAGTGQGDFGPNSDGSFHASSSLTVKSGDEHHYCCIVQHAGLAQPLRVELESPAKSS
human neonatal Fc receptor (FcRn) (human), sequence (chain, as listed by the source limits assumed, chain 2 of 2): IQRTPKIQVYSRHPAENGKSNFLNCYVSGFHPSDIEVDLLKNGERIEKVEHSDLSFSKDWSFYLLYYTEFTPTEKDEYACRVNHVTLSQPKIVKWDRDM

With Adalimumab huIgG1 ctrl (antibody), the figures for the Kd in assay [1] and in assay [2] were 154 nM and 467 nM, respectively.
